Source: patent US20110124556 (published 2011)
Positions of bridges follow the written chain, without caps; N, C: chain ends. Non-standard residues stand in square brackets, D forms with d. Chains are numbered I, II in the order given. No end group written: not given here. Tyr(3-I) = N[C@@H](Cc1ccc(O)c(I)c1)C(=O)O; Hyp = O=C(O)[C@@H]1C[C@@H](O)CN1; Tic = O=C(O)[C@@H]1Cc2ccccc2CN1; Ac6c = NC1(C(=O)O)CCCCC1; βturn = not defined here

B1: S588 (peptide)
chain 1: LEEEWAQVECEV
chain 2: [Tyr(3-I)]GRGCSGSLDESFYDWFERQLG
modifications: ends and bridges not checked
B2: S378 (peptide)
chain 1: GSLDESFYDWFERQLGKKKX
chain 2: GSLDESFYDWFERQLGKKKX
modifications: listing feature
B3: S432 (peptide)
chain 1: ESFYDWFERQLGGGGK
chain 2: CEVYGRGCPS
B4: S170 (peptide)
chain 1: CGFHENFYDWFVRQVSKK
chain 2: CGFHENFYDWFVRQVSKK
modifications: disulfide I:1-II:1; not fully specified; ends not checked
B5: S359 (peptide)
chain 1: XDWLQRNANFYDWFVAEL
chain 2: XDWLQRNANFYDWFVAEL
modifications: listing feature
B6: S433 (peptide)
chain 1: ESFYDWFERQLGGGGK
chain 2: WLDQEWAWVQ
B7: S437 (peptide)
chain 1: ESFYDWFERQLGGGGK
chain 2: LDQEWAWVQCEVYGRGCPS
B8: S256 (peptide)
chain: [Ac6c]CLEE[dW]GASL[Tic]QCSG
modifications: not fully specified (bridges); printed as Acy-CLEEwGASL-Tic-QCSG; cysteine pairing not given here
B9: S441 (peptide)
chain 1: ESFYDWFERQLGGGGK
chain 2: WAWVQCEVYGRGCPS
B10: S591 (protein)
chain 1: LEEEWAQIECEVWGRGCSGSLDESF
chain 2: LEEEWAQIECEVWGRGCSGSLDESF
B11: S444 (peptide)
chain 1: ESFYDWFERQLGGGGK
chain 2: VQCEVYGRGCPS
B12: S581 (peptide)
chain 1: SLEEEWAQIESEVWGR-βturn
chain 2: ESFYDWFERQLG
modifications: not fully specified; printed as SLEEEWAQIESEVWGR-βturn-ESFYDWFERQLG; ends and bridges not checked
B13: S454 (peptide)
chain 1: GSLDESFYDWFERQLGKKKX
chain 2: EWLDQEWAWVQCEVYGRGCPSEEKX
modifications: not fully specified; listing feature
B14: S423 (peptide)
chain 1: ESFYDWFERQLGK
chain 2: ACAWPTYWNCG
modifications: ends and bridges not checked; also: two chains joined C-terminus to C-terminus, the link is not given here

target: human insulin receptor (HIR) (human, UniProt P06213); assay: competition

Binder	Kd
SLEEEWAQIECEVWGRGCPSY [S592]	17 nM
SLEEEWAQIECEVWGRGCPKGFYGWFRRRRG [S584]	9.3 nM
AAAAFYDWFAAAAAKK [S168]	38 nM
LDQEWAWVQCEAYGRGCPSESFYDWFERQL [S503]	2.1 nM
B1	0.18 nM
B2	65 nM
LDQEWAQVQCEVYGRGCPSESFYDWFERQL [S533]	0.067 nM
FHENFYDAFVRQVSKK [S222]	> 20 nM
LEEEWAQVECEVYGRGCPSESFYDWFERQL [S536]	0.083 nM
Ac-SIEEEWAQIKCDVWGRGSESFYDWFERQL (ends and bridges not checked) [S600]	0.0076 nM
B3	180 nM
WGRSFYRYFETLLAQGI [S261]	> 20000 nM
SLEEEWAQIECEVWGRGCPSESFYDWFERQL [S558]	0.019 nM
SLEEEWAQIQCEVWGRGCPSESFYDWFERQL (not fully specified (N-terminus); ends and bridges not checked) [S606]	0.004 nM
DWLQRNANFYDWFVAELX (listing feature) [S294]	130 nM
Ac-SIEEEWAQIKCDVWGRGPSESFYDWFERQLG (ends and bridges not checked) [S568]	0.0043 nM
B4	700 nM
[dF][dH][dE][dN][dF][dY][dD][dW][dF][dV][dR][dQ][dV][dS][dK][dK] [S114]	83000 nM
B5	700 nM
WPGYAWLS [S317]	> 20000 nM

Binder	Kd
SLEEEWAQIECEVWGRCWHHSFYDWFERQL [S594]	0.071 nM
SIEEEWAQIKCDVWGRGCPPGLLDESFYHWFDRQLR [S520]	0.02 nM
QAPSNFYDWFVREWDEE [S287]	59 nM
B6	110 nM
NANFYDWFVAELG [S241]	16000 nM
GSLDESFYDWFERQLGGGSGGSWLDEEWAQVQCEVYGRGCPS [S543]	0.019 nM
FHENFYDWFVAQVSKK [S108]	750 nM
B7	0.69 nM
AFYDWFAK [S180]	> 2000 nM
SLEEEWAQVECEVYGRGCPS [S547]	49 nM
B8	90000 nM
GSLDESFYDWFERQLGKKKS [S373]	120 nM
SLEEEWAQIQAEVYGNPNSESFYDWFERQL [S602]	0.031 nM
DWLQRNANFYDWFVAELG [S236]	100 nM
SLEEEWAQIEEVWGRSESFYDWFERQLG [S572]	4.8 nM
SSNFYQALMLLS [S129]	2900 nM
SLEEEWAQIECEVWGRGCSESFYDWFERQL [S559]	0.021 nM
SLNFYDALQLLAKK [S119]	18 nM
WLDQEWAWVQCEVYGRGCPSGGSGGSGRVDWLQRNANFYDWFVAELG [S511]	3.8 nM
CGFHENFYDWFVRQVSKK (not fully specified; ends and bridges not checked) [S171]	29000 nM

Binder	Kd
SLEEEWAQVECEVYGRGCPSESFYDWFVRQLG [S555]	0.057 nM
SLEEEWAQVEAEVYGRGAPSGSLDESFYDWFERQLG [S551]	0.072 nM
B9	120 nM
RD[Hyp]FYDWFDD[dI] [S268]	450 nM
SIEEEWAQIKCDVWGRGCSESFYDWFERQL [S556]	0.032 nM
SLEEEWAQIESEVWGRSESFYDWFERQLG [S573]	0.036 nM
B10	0.13 nM
B11	190 nM
B12	0.012 nM
LDRQFYRYFQDLLVGFM [S260]	2300 nM
DPFYQGLWEWLRESGEE [S289]	> 2000 nM
FHENAYDWFVRQVSKK [S219]	> 2000 nM
SLEEEWAQVECEVYGRGCPPGLLDESFYHWFDRQLR [S553]	0.0073 nM
RWPNFYGYFESLLTHFS [S257]	14000 nM
SLEEEWAQIQHELWPVEKGESFYDWFERQL (not fully specified (N-terminus); ends and bridges not checked) [S605]	0.094 nM
SLEEEWAQIECEVWGRGCPKGFYGWFRRRG [S582]	2.5 nM
B13	0.38 nM
B14	62 nM
